Residue numbers refer to the chain shown, from its start. Like-named read-outs stand apart in the source and are kept apart here. One block for each binder: values may come before it.
Tests used:
Test in all cases: flow cytometry
human OX40 [1] = target: T1, human OX40 (human, UniProt P43489 29-277)
T1 chain: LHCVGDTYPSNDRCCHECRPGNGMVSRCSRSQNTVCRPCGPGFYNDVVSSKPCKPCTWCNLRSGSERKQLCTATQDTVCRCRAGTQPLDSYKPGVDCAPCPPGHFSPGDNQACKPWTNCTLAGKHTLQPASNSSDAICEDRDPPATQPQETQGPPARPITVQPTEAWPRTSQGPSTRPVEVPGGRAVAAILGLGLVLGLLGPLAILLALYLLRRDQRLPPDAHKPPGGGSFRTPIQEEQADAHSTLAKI

human OX40 [2] = target: T1, human OX40
cynomolgus monkey OX40 = target: T2, cynomolgus monkey OX40 (cynomolgus monkey)
T2 chain: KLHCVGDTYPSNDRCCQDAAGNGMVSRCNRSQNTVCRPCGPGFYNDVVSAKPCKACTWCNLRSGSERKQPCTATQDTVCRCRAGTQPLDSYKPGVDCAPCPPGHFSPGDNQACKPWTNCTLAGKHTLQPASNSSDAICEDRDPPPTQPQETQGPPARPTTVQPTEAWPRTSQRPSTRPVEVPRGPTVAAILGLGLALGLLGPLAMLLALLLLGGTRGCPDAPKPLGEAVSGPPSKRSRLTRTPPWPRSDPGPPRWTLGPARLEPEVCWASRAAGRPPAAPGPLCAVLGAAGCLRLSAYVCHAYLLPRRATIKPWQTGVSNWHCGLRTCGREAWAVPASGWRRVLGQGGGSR

human OX40 [3] = target: T1, human OX40

B3: mono-mut23-12H3 (Fc fusion)
chain: IWELKKDVYVVELDWYPDAPGEMVVLTCDTPEEDGITWTLDQSSEVLGSGKTLTIQVKEFGDAGQYTCHKGGEVLSHSLLLLHKKEDGIWSTDILKDQKEPKNKTFLRCEAKNYSGRFTCWWLTTISTDLTFSVKSSRGSSDPQGVTCGAATLSAERVRGDNKEYEYSVECQEDSACPAAEESLPIEVMVDAVHKLKYENYTSSFFIRDIIKPDPPKNLQLKPLKNSRQVEVSWEYPDTWSTPHSYFSLTFSVQVQGKSKREKKDRVFTDKTSATVICRKNASISVRAQDRYYSSSWSEWASVPCSGGGGSGGGGSGGGGSGGGGSGGGGSRNLPVATPDPGMFPCLHHSQNLLRAVSNMLQKARQTLEFSPCTSEEIDHEDITKDKTSTVEACLPLELTKNESCLNSRETSFITNGSCLASRKTSFMMALCLSSIYEDLKMYQVEFKTMNAKLLMDPKRQIFLDQNMLAVIDELMQALNFNSETVPQKSSLEEPDFYKTAIKLCILLHAFRIRAVTIDRVMSYLNASGGGGSGGGGSEPKSSDKTHTCPPCPAPEFEGGPSVFLFPPKPKDTLMISRTPEVTCVVVDVSHEDPEVKFNWYVDGVEVHNAKTKPREEQYNSTYRVVSVLTVLHQDWLNGKEYKCKVSNKALPASIEKTISKAKGQPREPQVCTLPPSRDELTKNQVSLSCAVKGFYPSDIAVEWESNGQPENNYKTTPPVLDSDGSFFLVSKLTVDKSRWQQGNVFSCSVMHEALHNHYTQKSLSLSPG
heavy: QVQLVQSGAEVKKPGSSVKVSCKASGYTFKDYTMHWVRQAPGQGLEWIGGIYPNNGGSTYNQNFKDRVTLTADKSTSTAYMELSSLRSEDTAVYYCARMGYHGPHLDFDVWGQGTTVTVSSASTKGPSVFPLAPSSKSTSGGTAALGCLVKDYFPEPVTVSWNSGALTSGVHTFPAVLQSSGLYSLSSVVTVPSSSLGTQTYICNVNHKPSNTKVDKKVEPKSCDKTHTCPPCPAPEFEGGPSVFLFPPKPKDTLMISRTPEVTCVVVDVSHEDPEVKFNWYVDGVEVHNAKTKPREEQYNSTYRVVSVLTVLHQDWLNGKEYKCKVSNKALPASIEKTISKAKGQPREPQVYTLPPCRDELTKNQVSLWCLVKGFYPSDIAVEWESNGQPENNYKTTPPVLDSDGSFFLYSKLTVDKSRWQQGNVFSCSVMHEALHNHYTQKSLSLSPG
light: DIQMTQSPSSLSASVGDRVTITCKASQDVGAAVAWYQQKPGKAPKLLIYWASTRHTGVPSRFSGSGSGTDFTLTISSLQPEDFATYYCQQYINYPLTFGGGTKVEIKRTVAAPSVFIFPPSDEQLKSGTASVVCLLNNFYPREAKVQWKVDNALQSGNSQESVTEQDSKDSTYSLSSTLTLSKADYEKHKVYACEVTHQGLSSPVTKSFNRGEC
- EC50 (human OX40 [1]): 15.6 nM
- EC50 (cynomolgus monkey OX40): 19.2 nM

B4: mono-mut23-12H3_V3 (Fc fusion)
chain: B3 chain
heavy: B3 heavy with N55Q
light: B3 light
- EC50 (human OX40 [3]): 839 nM

The remaining lines, values ahead:

- EC50 (human OX40 [1]): 59.2 nM
- EC50 (human OX40 [2]): 92.6 nM
- EC50 (cynomolgus monkey OX40): 111 nM
B1: mono-mut23-20E5 (Fc fusion)
chain: B3 chain
heavy: QVQLVQSGAEVKKPGASVKVSCKASGYTFTSYVMHWVRQAPGQRLEWIGYINPYNDGTKYNEKFKGRATLTSDKSASTAYMELSSLRSEDTAVYYCANYYGSSLSMDYWGQGTLVTVSSASTKGPSVFPLAPSSKSTSGGTAALGCLVKDYFPEPVTVSWNSGALTSGVHTFPAVLQSSGLYSLSSVVTVPSSSLGTQTYICNVNHKPSNTKVDKKVEPKSCDKTHTCPPCPAPEFEGGPSVFLFPPKPKDTLMISRTPEVTCVVVDVSHEDPEVKFNWYVDGVEVHNAKTKPREEQYNSTYRVVSVLTVLHQDWLNGKEYKCKVSNKALPASIEKTISKAKGQPREPQVYTLPPCRDELTKNQVSLWCLVKGFYPSDIAVEWESNGQPENNYKTTPPVLDSDGSFFLYSKLTVDKSRWQQGNVFSCSVMHEALHNHYTQKSLSLSPG
light: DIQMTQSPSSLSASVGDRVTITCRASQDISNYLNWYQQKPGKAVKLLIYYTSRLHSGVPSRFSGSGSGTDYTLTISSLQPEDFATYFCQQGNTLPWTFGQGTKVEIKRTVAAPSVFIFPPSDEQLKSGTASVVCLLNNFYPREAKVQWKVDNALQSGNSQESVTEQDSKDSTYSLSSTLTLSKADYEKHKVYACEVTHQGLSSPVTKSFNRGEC

- EC50 (human OX40 [3]): 1910 nM
B2: mono-mut23-12H3_V8 (Fc fusion)
chain: B3 chain
heavy: B3 heavy with N55Q, M99I
light: B3 light

Source: patent US20250236653A1 (published 2025)
